Assay results taken from patent US20250122303A1, “TREATMENT AND PREVENTION OF CANCER USING HER3 ANTIGEN-BINDING MOLECULES” (Hummingbird Bioscience Pte. Ltd., priority 2021, published 2025).

Tests used:
human HER3 [1] = biological target: T1, human HER3 (Homo sapiens, UniProt P21860); assay: Immunohistochemistry on frozen human tissue arrays; parameters: Arrays of commercially-available frozen tissue sections were obtained; from tissue; host or cells: frozen human normal and malignant tissue section arrays; conditions: mIgG2a format
Description: Anti-HER3 antibody 10D1F in mIgG2a format was evaluated for its ability to be used in immunohistochemistry for the detection of human HER3 protein.
Processing of sections was performed using Bond reagents (Leica Biosystems). Arrays of commercially-available frozen tissue sections were obtained. Slides were dried in a desiccator for 10 min and then subjected to the following treatments, with water washes and/or TBS-T rinses between steps: (i) fixation by treatment with 100% acetone for 10 min at room temperature; (ii) endogenous peroxidase blocking by treatment with 3% (v/v) H2O2 for 15 min at room temperature; (iii) blocking by treatment with 10% goat serum for 30 min at room temperature, (iv) incubation with 10D1 F-mIgG2a at 1:250 dilution of a 6.2 mg/ml solution overnight at 4° C., (v) incubation with HRP-polymer conjugated goat anti-mouse antibody for 30 min at room temperature, and (vi) development with Bond Mixed DAB Refine for 5 min at room temperature, followed by rinsing with deionised water and 1× Bond Wash to stop the reaction.
Slides were then dehydrated, mounted in synthetic mounting media and scanned with high resolution.

human HER3 [2] = biological target: T1, human HER3; assay: Global affinity study, Bio-Layer Interferometry (Octet QK384); type: binding; conditions: BLI, His-tagged human HER3, IgG1 format, 25° C.; read-out: Affinity (KD)
Description: The anti-HER3 antibody clones in IgG1 format were analysed for binding affinity to human HER3. Bio-Layer Interferometry (BLI) experiments were performed using the Octet QK384 system (ForteBio). anti-Human IgG Capture (AHC) Octet sensor tips (Pall ForteBio, USA) were used to anti-HER3 antibodies (25 nM). All measurements were performed at 25° C. with agitation at 1000 rpm. Kinetic measurements for antigen binding were performed by loading His-tagged human HER3 antigens at different concentrations for 120 s, followed by a 120 s dissociation time by transferring the biosensors into assay buffer containing wells. Sensograms were referenced for buffer effects and then fitted using the Octet QK384 user software (Pall ForteBio, USA). Kinetic responses were subjected to a global fitting using a one site binding model to obtain values for association (Kon), dissociation (Koff) rate constants and the equilibrium dissociation constant (KD). Only curves that could be reliably fitted with the software (R^2>0.90) were included in the analysis.
Bio-Layer Interferometry (BLI) experiments were performed using the Octet QK384 system (ForteBio). […] Binding was detected using titrated HIS-tagged human HER3 in steps of baseline (60 s), loading (120 s), baseline2 (60 s), association (120 s), dissociation (FcA 120 s, FcB 600 s) and regeneration (15 s). Sensorgrams were analysed as described in Example 3.3. […]

[3] = biological target: human HER3:human NRG1 complex (Homo sapiens, UniProt P21860); assay: BLI binding to HER3-NRG1 complex ('open' conformation); conditions: presence of NRG1 (1:1 molar ratio)
Description: (§1) In further experiments, anti-HER3 antibodies were analysed in order to determine the affinity of binding to human HER3 in the context of a human HER3:human NRG1 complex (that is, HER3 provided in the ligand-bound, ‘open’ conformation), as compared to the affinity of binding to human HER3 in the absence of NRG1 complex (that is, HER3 provided in the unbound, ‘closed’ conformation).
(§2) Binding of anti-HER3 antibodies to human HER3 was evaluated by BLI. Briefly, anti-Human IgG Capture (AHC) sensors (ForteBio) were loaded with anti-HER3 IgG antibodies (25 nM). Kinetic measurements were performed in absence or presence of NRG1. NRG1 was used at 1:1 molar ratio with HER3 wherein the complex was allowed to form at RT for 2 h. His-tagged human HER3 or HER3-NRG1 complexes were loaded to antibody coated AHC sensors at different concentrations for 120 s, followed by a 120 s dissociation time. All measurements were performed at 25° C. with agitation at 1000 rpm. Sensorgrams were referenced for buffer effects and then analyzed using the Octet QK384-software (ForteBio). Kinetic responses were globally fitted using a one-site binding model to obtain values for association (Kon), dissociation (Koff) rate constants and the equilibrium dissociation constant (KD).

human HER3 [4] = biological target: T1, human HER3; assay: BLI binding to HER3 in absence of NRG1 ('closed' conformation)
Description: as §1, §2

mouse HER3 = biological target: T2, mouse HER3 (Mus musculus, UniProt Q61526); assay: ELISA cross-reactivity, mouse HER3; type: binding
T2 construct: purchased Sino Biological Inc., China
T2 sequence (Q61526 20-1339): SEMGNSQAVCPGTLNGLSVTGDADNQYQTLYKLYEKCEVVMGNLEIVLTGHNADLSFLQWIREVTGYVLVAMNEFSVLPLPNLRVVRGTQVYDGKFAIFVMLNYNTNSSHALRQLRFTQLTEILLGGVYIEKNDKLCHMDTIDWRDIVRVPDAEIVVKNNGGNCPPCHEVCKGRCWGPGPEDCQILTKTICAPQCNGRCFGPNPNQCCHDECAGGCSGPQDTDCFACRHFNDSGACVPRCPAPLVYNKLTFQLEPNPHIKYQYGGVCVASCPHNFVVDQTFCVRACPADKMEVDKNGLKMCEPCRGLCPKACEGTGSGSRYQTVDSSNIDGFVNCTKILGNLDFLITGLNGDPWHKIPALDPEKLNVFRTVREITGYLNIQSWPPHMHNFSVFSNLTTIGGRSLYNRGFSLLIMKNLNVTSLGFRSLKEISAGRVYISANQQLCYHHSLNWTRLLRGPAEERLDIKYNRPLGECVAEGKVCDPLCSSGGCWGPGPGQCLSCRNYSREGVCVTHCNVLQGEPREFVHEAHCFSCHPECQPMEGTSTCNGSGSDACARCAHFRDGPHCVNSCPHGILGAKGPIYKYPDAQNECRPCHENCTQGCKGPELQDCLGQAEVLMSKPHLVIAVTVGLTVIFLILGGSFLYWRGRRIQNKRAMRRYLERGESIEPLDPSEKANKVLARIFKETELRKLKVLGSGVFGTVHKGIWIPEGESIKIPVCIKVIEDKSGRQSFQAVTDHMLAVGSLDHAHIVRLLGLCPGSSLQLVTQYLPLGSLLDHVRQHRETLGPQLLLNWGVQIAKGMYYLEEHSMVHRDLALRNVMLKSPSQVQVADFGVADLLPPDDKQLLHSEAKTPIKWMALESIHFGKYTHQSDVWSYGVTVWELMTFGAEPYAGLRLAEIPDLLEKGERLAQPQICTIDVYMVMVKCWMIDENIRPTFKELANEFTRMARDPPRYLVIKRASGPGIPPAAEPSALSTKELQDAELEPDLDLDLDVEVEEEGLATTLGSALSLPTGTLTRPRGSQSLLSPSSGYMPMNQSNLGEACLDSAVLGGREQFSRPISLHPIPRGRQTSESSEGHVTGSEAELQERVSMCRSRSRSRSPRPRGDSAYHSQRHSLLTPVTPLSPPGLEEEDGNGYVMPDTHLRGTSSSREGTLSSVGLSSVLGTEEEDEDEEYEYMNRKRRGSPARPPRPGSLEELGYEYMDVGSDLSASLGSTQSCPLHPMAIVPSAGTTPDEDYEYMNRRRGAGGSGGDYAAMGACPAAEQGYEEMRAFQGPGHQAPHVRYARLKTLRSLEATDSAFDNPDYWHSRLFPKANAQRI
Description: (§3) ELISAs were used to determine the binding specificity of the antibodies. The antibodies were analysed for binding to human HER3 polypeptide, as well as respective mouse, rat and monkey homologues of HER3 (Sino Biological Inc., China). The antibodies were also analysed for their ability to bind to human EGFR and human HER2 (Sino Biological Inc., China).
(§4) ELISAs were carried out according to standard protocols. Briefly, 96-well plates (Nunc, Denmark) were coated with 0.1 μg/ml of target polypeptide in phosphate-buffered saline (PBS) for 16 h at 4° C. After blocking for 1 h with 1% BSA in Tris buffer saline (TBS) at room temperature, the anti-HER3 antibody was serially diluted with the highest concentration being 10 μg/ml, and added to the plate. Post 1 h incubation at room temperature, plates were washed three times with TBS containing 0.05% Tween 20 (TBS-T) and were then incubated with a HRP-conjugated anti-His antibody (Life Technologies, Inc., USA) for 1 h at room temperature. After washing, plates were developed with colorimetric detection substrate 3,3′,5,5′-tetramethylbenzidine (Turbo-TMB; Pierce, USA) for 10 min. The reaction was stopped with 2M H2SO4, and OD was measured at 450 nm. […]

rat HER3 = biological target: T3, rat HER3 (Rattus norvegicus, UniProt Q62799); assay: ELISA cross-reactivity, rat HER3; type: binding
T3 construct: purchased Sino Biological Inc., China
T3 sequence (Q62799 20-1339): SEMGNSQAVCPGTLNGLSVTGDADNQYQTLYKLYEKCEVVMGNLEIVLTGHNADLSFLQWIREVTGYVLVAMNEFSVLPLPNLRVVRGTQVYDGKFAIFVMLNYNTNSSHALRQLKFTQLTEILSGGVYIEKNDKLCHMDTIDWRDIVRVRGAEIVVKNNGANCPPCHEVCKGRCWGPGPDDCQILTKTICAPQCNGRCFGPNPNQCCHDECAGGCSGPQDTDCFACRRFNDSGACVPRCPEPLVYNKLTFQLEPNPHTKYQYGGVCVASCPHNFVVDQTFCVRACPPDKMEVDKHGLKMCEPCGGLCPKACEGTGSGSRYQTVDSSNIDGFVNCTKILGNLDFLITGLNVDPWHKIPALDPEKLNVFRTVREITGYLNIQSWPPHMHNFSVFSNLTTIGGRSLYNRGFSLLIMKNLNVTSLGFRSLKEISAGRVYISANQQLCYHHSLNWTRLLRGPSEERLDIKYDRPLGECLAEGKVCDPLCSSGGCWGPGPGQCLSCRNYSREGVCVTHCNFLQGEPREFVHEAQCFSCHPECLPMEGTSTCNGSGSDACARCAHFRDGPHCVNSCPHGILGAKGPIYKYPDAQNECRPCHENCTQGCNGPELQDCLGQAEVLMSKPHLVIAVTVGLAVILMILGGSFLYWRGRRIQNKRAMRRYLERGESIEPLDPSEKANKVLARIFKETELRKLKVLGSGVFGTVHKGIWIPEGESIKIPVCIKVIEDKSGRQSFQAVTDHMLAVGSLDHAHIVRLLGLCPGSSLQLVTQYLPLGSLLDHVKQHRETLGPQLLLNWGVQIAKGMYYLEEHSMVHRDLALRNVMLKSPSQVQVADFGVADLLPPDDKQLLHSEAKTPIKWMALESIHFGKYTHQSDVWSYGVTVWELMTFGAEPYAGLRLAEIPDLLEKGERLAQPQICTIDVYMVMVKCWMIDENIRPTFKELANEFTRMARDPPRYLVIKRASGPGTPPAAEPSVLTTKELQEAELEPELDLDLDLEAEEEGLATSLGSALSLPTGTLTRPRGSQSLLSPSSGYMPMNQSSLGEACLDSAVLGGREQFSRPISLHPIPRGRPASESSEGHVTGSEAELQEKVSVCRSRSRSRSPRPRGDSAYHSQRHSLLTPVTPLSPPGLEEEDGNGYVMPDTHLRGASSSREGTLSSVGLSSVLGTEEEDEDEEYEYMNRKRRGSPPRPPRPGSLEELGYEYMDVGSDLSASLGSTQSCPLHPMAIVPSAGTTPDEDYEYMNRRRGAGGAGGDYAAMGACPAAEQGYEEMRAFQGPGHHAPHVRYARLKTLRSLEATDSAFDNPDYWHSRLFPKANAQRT
Description: as §3, §4

cynomolgus macaque HER3 = assay: ELISA cross-reactivity, cynomolgus macaque HER3; type: binding
Description: as §3, §4

[5] = tested on: A549 cell-line derived mouse model of lung adenocarcinoma; assay: A549 cell-line derived xenograft model; type: in vivo; conditions: A549, NPG mice, IP weekly 500 μg, 4 doses
human HER2 = biological target: T4, human HER2 (Homo sapiens, UniProt P04626); assay: ELISA specificity, human HER2; type: binding; conditions: antibody up to 10 μg/ml
T4 construct: purchased Sino Biological Inc., China
Description: as §3
(§5) ELISAs were carried out according to standard protocols. Briefly, 96-well plates (Nunc, Denmark) were coated with 0.1 μg/ml of target polypeptide in phosphate-buffered saline (PBS) for 16 h at 4° C. After blocking for 1 h with 1% BSA in Tris buffer saline (TBS) at room temperature, the anti-HER3 antibody was serially diluted with the highest concentration being 10 μg/ml, and added to the plate. Post 1 h incubation at room temperature, plates were washed three times with TBS containing 0.05% Tween 20 (TBS-T) and were then incubated with a HRP-conjugated anti-His antibody (Life Technologies, Inc., USA) for 1 h at room temperature. […] The reaction was stopped with 2M H2SO4, and OD was measured at 450 nm.
(§6) The antibodies were analysed for their ability to bind to human HER3 polypeptide as well as human HER1 (EGFR) and human HER2 (Sino Biological Inc., China). […]
(§7) ELISAs were carried out according to standard protocols. […] The reaction was stopped with 2M H2SO4, and OD was measured at 450 nm.

human EGFR = biological target: T5, human EGFR (Homo sapiens, UniProt P00533); assay: ELISA specificity, human EGFR; type: binding; conditions: antibody up to 10 μg/ml
T5 construct: purchased Sino Biological Inc., China
Description: as §3, §5, §6, §7

[6] = clinical, literature, cited from earlier work

B1: 10D1_c89: clone 10D1F comprises VH of SEQ ID NO:36 and VL of SEQ ID NO:83 (antibody, V domains shown)
VH: QVQLQESGPGLVKPSQTLSLTCTVSGYSITSGYSWHWIRQHPGKGLEWIGSIRYSGGTDYNPSLKSLVTISADTSKNQFSLKLSSVTAADTAVYYCARMTTAPWYPFDYWGQGTTVTVSS
VL: DIQMTQSPSSVSASVGDRVTITCKASQIVGSNVAWYQQKPGKAPEPLIYSASYLYSGVPSRFSGSGSGTDFTLTISSLQPEDFATYYCQQYSSHPLTFGQGTKLEIK
Human HER3 [1]
  immunohistochemical staining of malignant and normal human tissue: preferentially stained malignant human tissue sections, with low cross-reactivity to normal tissue
Human HER3 [2]
  Kd: 0.0726 nM
[3]
  affinity of binding to human HER3: sub-picomolar affinity
Human HER3 [4]
  affinity of binding to human HER3: sub-picomolar affinity

B2: 4-35-B2: anti-HER3 antibody clone, VH SEQ ID NO:127, VL SEQ ID NO:135 (antibody, V domains shown)
VH: EIQLQQSGPELVKPGASVKVSCKASGYSFTDYNMYWVKQSHGKSLEWIGHINPYNGGTTYNQKFKGRATLTVDKSSSTAFMHLNSLTSEDSAVYFCVSLRWGAMDYWGQGTSVTVSS
VL: QIVLTQSPALMSASPGEKVTMTCSASSSVSYMYWYQQKPRSSPKPWIYLTSNLASGVPARFSGSGSGTSYSLTISSMEAEDAATYYCQQWNSNPYTFGGGTKLEIK
Mouse HER3
  binding / cross-reactivity with mouse HER3: substantial cross-reactivity
Rat HER3
  binding / cross-reactivity with rat HER3: substantial cross-reactivity
Cynomolgus macaque HER3
  binding / cross-reactivity with cynomolgus macaque HER3: substantial cross-reactivity
[5]
  inhibition of tumor growth: ~63%
Human HER2
  binding to human HER2: found to bind
Human EGFR
  binding to human EGFR (HER1): found to bind

B3: MM-121: anti-HER3 antibody blocking binding of heregulin (NRG) to HER3 (antibody, chains of the INN, looked up)
heavy: EVQLLESGGGLVQPGGSLRLSCAASGFTFSHYVMAWVRQAPGKGLEWVSSISSSGGWTLYADSVKGRFTISRDNSKNTLYLQMNSLRAEDTAVYYCTRGLKMATIFDYWGQGTLVTVSSASTKGPSVFPLAPCSRSTSESTAALGCLVKDYFPEPVTVSWNSGALTSGVHTFPAVLQSSGLYSLSSVVTVPSSNFGTQTYTCNVDHKPSNTKVDKTVERKCCVECPPCPAPPVAGPSVFLFPPKPKDTLMISRTPEVTCVVVDVSHEDPEVQFNWYVDGVEVHNAKTKPREEQFNSTFRVVSVLTVVHQDWLNGKEYKCKVSNKGLPAPIEKTISKTKGQPREPQVYTLPPSREEMTKNQVSLTCLVKGFYPSDIAVEWESNGQPENNYKTTPPMLDSDGSFFLYSKLTVDKSRWQQGNVFSCSVMHEALHNHYTQKSLSLSPG
light: QSALTQPASVSGSPGQSITISCTGTSSDVGSYNVVSWYQQHPGKAPKLIIYEVSQRPSGVSNRFSGSKSGNTASLTISGLQTEDEADYYCCSYAGSSIFVIFGGGTKVTVLGQPKAAPSVTLFPPSSEELQANKATLVCLVSDFYPGAVTVAWKADGSPVKVGVETTKPSKQSNNKYAASSYLSLTPEQWKSHRSYSCRVTHEGSTVEKTVAPAECS
[6]
  T½ (terminal half life): 10.5 days
[6]; normalised to per mg/kg dosed
  Cmax (μg/ml) normalised to per mg/kg dosed: 24 to 25 µg/mL
